The values that follow come from article PMC11188183.

Assay [1] deals with kinesin family member C1 (KIFC1) (human) (UniProt Q9BW19).
Assay [2] has the same target. Kind of assay: affinity purification with mass spectrometry; anti-KIFC1 antibody (Abcam ab172620) crosslinked to magnetic beads; nuclear lysate of HCC1806 (AA) cells; LC-MS/MS of the eluate.
For assay [3] the target is unchanged. Kind of assay: affinity purification with mass spectrometry; anti-KIFC1 antibody (Abcam ab172620) crosslinked to magnetic beads; nuclear lysate of MDA-MB-468 (AA) cells; LC-MS/MS of the eluate.

UniProt Q9BW19, sequence (Q9BW19 whole entry): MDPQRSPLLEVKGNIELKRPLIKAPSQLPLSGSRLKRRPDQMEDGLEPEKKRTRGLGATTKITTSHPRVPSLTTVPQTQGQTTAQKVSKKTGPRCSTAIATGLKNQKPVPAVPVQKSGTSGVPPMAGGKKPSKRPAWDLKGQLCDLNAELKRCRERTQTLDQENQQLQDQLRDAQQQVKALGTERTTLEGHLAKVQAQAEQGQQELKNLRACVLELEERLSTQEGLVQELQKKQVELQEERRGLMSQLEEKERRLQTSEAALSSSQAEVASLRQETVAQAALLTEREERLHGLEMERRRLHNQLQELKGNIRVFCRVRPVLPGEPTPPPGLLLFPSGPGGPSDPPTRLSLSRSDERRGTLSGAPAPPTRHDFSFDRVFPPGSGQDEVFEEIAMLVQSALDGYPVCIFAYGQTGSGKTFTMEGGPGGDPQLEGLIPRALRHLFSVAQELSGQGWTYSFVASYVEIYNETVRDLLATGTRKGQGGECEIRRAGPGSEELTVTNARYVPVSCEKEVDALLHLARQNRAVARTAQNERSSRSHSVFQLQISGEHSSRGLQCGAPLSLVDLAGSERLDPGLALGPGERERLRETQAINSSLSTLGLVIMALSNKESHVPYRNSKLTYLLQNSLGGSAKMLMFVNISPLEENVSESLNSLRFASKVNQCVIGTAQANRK

On to “myosin heavy chain 9 (MYH9) (from UniProt P35579 1-1960) (natural protein)”, for which the BrdU cell proliferation of AA TNBC cells treated with CW069 + blebbistatin in assay [1] came out at 1.5 fold. For the same substance, the relative abundance of MYH9 in the nKIFC1 immunoprecipitate, fold over MDA-MB-231 in assay [2] was 1.6 fold; in assay [3], 1.8 fold.
